# Measurements published in patent US20210054043A1 (HADASIT MEDICAL RESEARCH SERVICES AND DEVELOPMENT, published 2021).
# T1: isolated ectodomain of SLAMF1 containing a 6-histidine tag (seSLAMF1) (UniProt Q13291 21-237, limits assumed)
# T1 construct: extracellular domain; not shown: 6-histidine tag
# T1 sequence (looked up): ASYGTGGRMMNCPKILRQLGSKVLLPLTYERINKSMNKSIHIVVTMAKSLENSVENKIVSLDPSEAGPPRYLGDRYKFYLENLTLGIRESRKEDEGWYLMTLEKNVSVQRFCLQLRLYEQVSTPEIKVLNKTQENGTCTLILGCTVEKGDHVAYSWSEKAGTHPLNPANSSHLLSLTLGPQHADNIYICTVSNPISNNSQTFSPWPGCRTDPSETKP
# B1: isolated ectodomain of SLAMF7 containing a 6-histidine tag (seSLAMF7) (receptor, UniProt Q9NQ25 23-226, looked up)
# chain: SGPVKELVGSVGGAVTFPLKSKVKQVDSIVWTFNTTPLVTIQPEGGTIIVTQNRNRERVDFPDGGYSLKLSKLKKNDSGIYYVGIYSSSLQQPSTQEYVLHVYEHLSKPKVTMGLQSNKNGTCVTNLTCCMEHGEEDVIYTWKALGQAANESHNGSILPISWRWGESDMTFICVARNPVSRNFSSPILARKLCEGAADDPDSSM
# notes: extracellular domain; not shown: 6-histidine tag
# B2: isolated SLAMF6^var3 ectodomain (seSLAMF6^var3), human, C-terminal 6-histidine tag (receptor)
# chain: GNVVSVPHETKSPEIHVTNPKQGKRLNFTQSYSLQLSNLKMEDTGSYRAQISTKTSAKLSSYTLRILRQLRNIQVTNHSQLFQNMTCELHLTCSVEDADDNVSFRWEALGNTLSSQPNLTVSWDPRISSEQDYTCIAENAVSNLSFSVSAQKLCEDVKIQYTDTKMGSHHHHHH
# notes: Expressed in HEK293 cells and purified on a Ni column (Novoprotein/BonOpus); The N-terminus is heterogeneous; also called seSLAMF6-V3; soluble ectodomain of SLAMF6^var3
# B3: isolated ectodomain of SLAMF6^var1 containing a 6-histidine tag (Prospec, seSLAMF6) (receptor)
# chain: QSSLTPLMVNGILGESVTLPLEFPAGEKVNFITWLFNETSLAFIVPHETKSPEIHVTNPKQGKRLNFTQSYSLQLSNLKMEDTGSYRAQISTKTSAKLSSYTLRILRQLRNIQVTNHSQLFQNMTCELHLTCSVEDADDNVSFRWEALGNTLSSQPNLTVSWDPRISSEQDYTCIAENAVSNLSFSVSAQKLCEDVKIQYTDTKM
# notes: Bought reagent; Only the ectodomain stood in the assay; also called isolated SLAMF6^var1 ectodomain; not shown: 6-histidine tag
# B4: Fc-fused ectodomain of SLAMF6^var1 (seSLAMF6_Fc, Creative Biomart) (Fc fusion)
# chain: B3 chain
# notes: Bought reagent, coated on the plate at 1 ug/ml; Only the ectodomain stood in the assay; also called full length seSLAMF6-Fc; SLAMF6^var1 ectodomain (Fc-conjugated); not shown: Fc portion
# Tests used:
# Test in all cases: ELISA, seSLAMF6-Fc coated on the plate, anti-His-HRP detection
# [1] = biological target: B4
# Method: (§1) FIG. 11. seSLAMF6-V3 binding to full length seSLAMF6-Fc using ELISA. seSLAMF6-Fc was pre-coated to MaxiSorb plate. Soluble ectodomains from various SLAM family members (seSLAMF6, seSLAMF6-V3, seSLAMF1, seSLAMF7 and seSLAMF8, all containing 6-Histidine tags) were then added. An anti- Histidine antibody was used for detection.
# (§2) MaxiSorb plates were pre-coated overnight with an Fc-fused ectodomain of SLAMF6^var1 (seSLAMF6_Fc, Creative Biomart, at 1 μg/ml and 4° C.). On the next day, the plate was washed and blocked using blocking buffer containing 1% BSA in PBSX1. Next, the plate was incubated for two hours with different concentrations of isolated ectodomains (containing 6-histidine tags) from SLAMF6^var1 (Prospec, seSLAMF6) or SLAMF6^var3 (Novoprotein/Bonopus, seSLAMF6-V3), or from SLAMF1, SLAMF7 or SLAMF8 (seSLAMF1, seSLAMF7 and seSLAMF8, respectively). The amount of receptor-bound ectodomain polypeptides was detected using horseradish peroxidase (HRP)-conjugated antibodies directed to the histidine tag (anti-HIS Abs) and quantified using an ELISA reader.
# [2] = biological target: T1, isolated ectodomain of SLAMF1 …
# Method: as §1, §2
# [3] = biological target: T2, isolated ectodomain of SLAMF8 containing a 6-histidine tag (seSLAMF8) (UniProt Q9P0V8 23-233, limits assumed)
# T2 construct: extracellular domain; not shown: 6-histidine tag
# T2 sequence (Q9P0V8 23-233 limits assumed): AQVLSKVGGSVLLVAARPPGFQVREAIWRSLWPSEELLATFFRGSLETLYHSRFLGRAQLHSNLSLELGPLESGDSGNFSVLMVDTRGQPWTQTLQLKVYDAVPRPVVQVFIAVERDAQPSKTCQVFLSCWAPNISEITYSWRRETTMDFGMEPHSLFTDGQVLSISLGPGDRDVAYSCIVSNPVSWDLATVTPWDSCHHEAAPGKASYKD
# Method: as §1, §2
binding result [1],binding result [2],binding result [3],Binder
no binding,–,–,B1
binds,–,–,B2
binds,–,–,B3
–,no binding,no binding,B4
